Assay results taken from publication PMC2363329, “Interaction of the PA2G4 (EBP1) protein with ErbB-3 and regulation of this binding by heregulin” (British Journal of Cancer, 2000).

Target: T1, ErbB-3, endogenous in AU565 cells (human (endogenous in AU565), UniProt P21860 20-1342)
T1 construct: ErbB-3, endogenous in the human AU565 mammary carcinoma cell line; source: endogenous, AU565 lysate
Assay: co-IP; AU565 cells untreated, HRG (10 ng ml-1, 15 min) or EGF (50 ng ml-1, 15 min); cytoplasmic fractions in IP buffer (50 mM Tris pH 8.0, 120 mM NaCl, 0.5% NP-40); ErbB-3 immunoprecipitation, blot with anti-p38-2G4 and anti-ErbB-3; densitometry
Settings: partners not purified

T1 sequence (P21860 20-1342): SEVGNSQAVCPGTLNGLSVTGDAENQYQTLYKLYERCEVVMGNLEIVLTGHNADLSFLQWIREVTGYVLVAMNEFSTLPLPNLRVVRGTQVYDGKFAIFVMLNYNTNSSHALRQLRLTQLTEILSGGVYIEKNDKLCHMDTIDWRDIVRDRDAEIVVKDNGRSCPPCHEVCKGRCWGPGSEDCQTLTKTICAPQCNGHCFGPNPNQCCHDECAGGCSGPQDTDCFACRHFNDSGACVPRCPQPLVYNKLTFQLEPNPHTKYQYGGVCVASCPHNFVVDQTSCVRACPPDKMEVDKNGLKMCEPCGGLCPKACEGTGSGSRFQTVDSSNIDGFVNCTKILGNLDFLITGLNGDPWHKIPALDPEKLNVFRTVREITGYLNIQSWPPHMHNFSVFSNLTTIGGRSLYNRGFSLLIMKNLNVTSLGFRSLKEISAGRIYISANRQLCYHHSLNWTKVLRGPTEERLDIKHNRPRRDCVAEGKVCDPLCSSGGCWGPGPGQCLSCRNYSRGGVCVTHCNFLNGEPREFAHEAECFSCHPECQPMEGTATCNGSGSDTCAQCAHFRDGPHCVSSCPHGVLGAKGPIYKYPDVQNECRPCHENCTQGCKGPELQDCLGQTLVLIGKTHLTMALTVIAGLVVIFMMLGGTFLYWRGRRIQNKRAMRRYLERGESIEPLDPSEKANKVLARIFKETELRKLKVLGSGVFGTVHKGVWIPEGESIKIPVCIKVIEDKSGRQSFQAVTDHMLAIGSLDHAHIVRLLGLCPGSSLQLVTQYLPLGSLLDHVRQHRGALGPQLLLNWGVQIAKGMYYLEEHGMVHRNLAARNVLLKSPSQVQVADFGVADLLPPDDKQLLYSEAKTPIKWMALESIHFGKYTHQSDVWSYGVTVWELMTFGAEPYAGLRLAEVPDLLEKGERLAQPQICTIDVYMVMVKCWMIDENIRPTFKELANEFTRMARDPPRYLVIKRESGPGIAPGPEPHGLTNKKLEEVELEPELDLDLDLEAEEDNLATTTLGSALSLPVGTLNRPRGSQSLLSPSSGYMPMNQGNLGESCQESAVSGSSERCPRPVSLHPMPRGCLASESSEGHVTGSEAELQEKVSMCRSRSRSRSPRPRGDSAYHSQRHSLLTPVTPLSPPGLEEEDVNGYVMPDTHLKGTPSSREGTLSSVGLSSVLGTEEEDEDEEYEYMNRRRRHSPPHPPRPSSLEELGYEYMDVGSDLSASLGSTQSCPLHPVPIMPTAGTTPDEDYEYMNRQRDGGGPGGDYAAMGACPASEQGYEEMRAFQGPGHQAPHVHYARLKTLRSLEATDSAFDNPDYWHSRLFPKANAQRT

B1: Ebp1, endogenous approximately 50 kDa protein in AU565 cells (natural protein, human (endogenous in AU565), UniProt Q9UQ80 1-394, looked up)
chain: MSGEDEQQEQTIAEDLVVTKYKMGGDIANRVLRSLVEASSSGVSVLSLCEKGDAMIMEETGKIFKKEKEMKKGIAFPTSISVNNCVCHFSPLKSDQDYILKEGDLVKIDLGVHVDGFIANVAHTFVVDVAQGTQVTGRKADVIKAAHLCAEAALRLVKPGNQNTQVTEAWNKVAHSFNCTPIEGMLSHQLKQHVIDGEKTIIQNPTDQQKKDHEKAEFEVHEVYAVDVLVSSGEGKAKDAGQRTTIYKRDPSKQYGLKMKTSRAFFSEVERRFDAMPFTLRAFEDEKKARMGVVECAKHELLQPFNVLYEKEGEFVAQFKFTVLLMPNGPMRITSGPFEPDLYKSEMEVQDAELKALLQSSASRKTQKKKKKKASKTAENATSGETLEENEAGD
notes: Ebp1 (PA2G4), endogenous full-length protein of approximately 50 kDa in the human AU565 mammary carcinoma cell line; predicted protein of 394 amino acid residues; also called PA2G4; source: endogenous, AU565 lysate
ratio of Ebp1 to ErbB-3 in ErbB-3 immunoprecipitates (densitometry), EGF-treated cells: 1.3
ratio of Ebp1 to ErbB-3 in ErbB-3 immunoprecipitates (densitometry), control cells: 1.6
ratio of Ebp1 to ErbB-3 in ErbB-3 immunoprecipitates (densitometry), heregulin-treated cells: 0.3
